Laboratory results from the supplement of paper PMC9112550, “Optimization of the antimicrobial peptide Bac7 by deep mutational scanning” (BMC Biology, 2022).

Tested on: Escherichia coli TOP10
Assay: shrunken log2 fold change of peptide-encoding DNA abundance (4.5 h post-induction vs induction); higher = less antimicrobial activity (less host growth inhibition)
Conditions: time post-induction: 4.5 h; library: site-saturation at positions 5, 18, 19, 20
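Note: peptides expressed intracellularly from a pBAD plasmid library in pooled LB shake-flask culture, induced with 0.3% L-arabinose, DNA abundance read by NGS, three biological replicates, DESeq2 with apeglm shrinkage.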

| Sequence | shrunken log2 fold change |
| --- | --- |
| RRIRNRPPRLPRPRPRPDGQPRP | -0.0321 |
| RRIRWRPPRLPRPRPRPFCIPRP | -0.293 |
| RRIRTRPPRLPRPRPRPPSWPRP | 0.345 |
| RRIRHRPPRLPRPRPRPGLGPRP | 0.404 |
| RRIRFRPPRLPRPRPRPLRHPRP | 0.353 |
| RRIRKRPPRLPRPRPRPFKPPRP | 0.0806 |
| RRIRWRPPRLPRPRPRPFVIPRP | -0.396 |
| RRIRERPPRLPRPRPRPAHMPRP | -0.291 |
| RRIRHRPPRLPRPRPRPVVQPRP | 0.13 |
| RRIRARPPRLPRPRPRPYDDPRP | 0.192 |
| RRIRNRPPRLPRPRPRPFRTPRP | -0.066 |
| RRIRCRPPRLPRPRPRPIEKPRP | -0.0167 |
| RRIRVRPPRLPRPRPRPRDHPRP | 0.172 |
| RRIRRRPPRLPRPRPRPIKIPRP | -0.0791 |
| RRIRWRPPRLPRPRPRPEVLPRP | 0.167 |
| RRIRDRPPRLPRPRPRPFVHPRP | -0.0617 |
| RRIRERPPRLPRPRPRPGGQPRP | 0.171 |
| RRIRVRPPRLPRPRPRPFQGPRP | -0.0641 |
| RRIRMRPPRLPRPRPRPVLVPRP | 0.223 |
| RRIRIRPPRLPRPRPRPQRVPRP | -0.406 |
| RRIRLRPPRLPRPRPRPWHKPRP | -0.0761 |
| RRIRDRPPRLPRPRPRPAVQPRP | -0.00697 |
| RRIRERPPRLPRPRPRPTNFPRP | -0.00437 |
| RRIRWRPPRLPRPRPRPWNEPRP | 0.0237 |
| RRIRRRPPRLPRPRPRPRYYPRP | -0.438 |

| Sequence | shrunken log2 fold change |
| --- | --- |
| RRIRSRPPRLPRPRPRPAQIPRP | -0.0853 |
| RRIRWRPPRLPRPRPRPPLRPRP | 0.418 |
| RRIRSRPPRLPRPRPRPVFWPRP | 0.365 |
| RRIRKRPPRLPRPRPRPAFQPRP | 0.107 |
| RRIRLRPPRLPRPRPRPFRVPRP | 0.128 |
| RRIRDRPPRLPRPRPRPSGHPRP | 1.17 |
| RRIRPRPPRLPRPRPRPWIHPRP | -0.44 |
| RRIRPRPPRLPRPRPRPTWSPRP | 0.324 |
| RRIRWRPPRLPRPRPRPMGEPRP | 0.0775 |
| RRIRHRPPRLPRPRPRPTYPPRP | 0.0921 |
| RRIRVRPPRLPRPRPRPHVGPRP | 0.0858 |
| RRIRCRPPRLPRPRPRPACWPRP | 0.219 |
| RRIRARPPRLPRPRPRPAVPPRP | 0.848 |
| RRIRQRPPRLPRPRPRPWYYPRP | 0.0179 |
| RRIRVRPPRLPRPRPRPPDCPRP | -0.0843 |
| RRIRYRPPRLPRPRPRPCYGPRP | -0.211 |
| RRIRTRPPRLPRPRPRPPYCPRP | -0.112 |
| RRIRWRPPRLPRPRPRPDKIPRP | -0.0504 |
| RRIRPRPPRLPRPRPRPPMPPRP | 0.442 |
| RRIRSRPPRLPRPRPRPWFQPRP | -0.246 |
| RRIRMRPPRLPRPRPRPVQCPRP | -0.0134 |
| RRIRRRPPRLPRPRPRPDFLPRP | 1.31 |
| RRIRRRPPRLPRPRPRPLLPPRP | 0.574 |
| RRIRKRPPRLPRPRPRPRRYPRP | 0.47 |
| RRIRMRPPRLPRPRPRPYFGPRP | -0.138 |

| Sequence | shrunken log2 fold change |
| --- | --- |
| RRIRPRPPRLPRPRPRPKGTPRP | 0.0309 |
| RRIRIRPPRLPRPRPRPRPMPRP | 0.129 |
| RRIRVRPPRLPRPRPRPLRNPRP | 0.408 |
| RRIRCRPPRLPRPRPRPYCEPRP | -0.195 |
| RRIRFRPPRLPRPRPRPQFFPRP | -0.193 |
| RRIRKRPPRLPRPRPRPHTSPRP | -0.469 |
| RRIRRRPPRLPRPRPRPQNSPRP | -0.266 |
| RRIRYRPPRLPRPRPRPILQPRP | 0.049 |
| RRIRDRPPRLPRPRPRPSARPRP | 0.465 |
| RRIRLRPPRLPRPRPRPFHEPRP | -0.101 |
| RRIRHRPPRLPRPRPRPTNYPRP | -0.2 |
| RRIRYRPPRLPRPRPRPCMGPRP | -0.198 |
| RRIRQRPPRLPRPRPRPDSFPRP | 0.0109 |
| RRIRGRPPRLPRPRPRPQPDPRP | 0.821 |
| RRIRSRPPRLPRPRPRPINEPRP | -0.249 |
| RRIRHRPPRLPRPRPRPEAWPRP | 0.0548 |
| RRIRQRPPRLPRPRPRPECFPRP | 0.398 |
| RRIRTRPPRLPRPRPRPPNSPRP | 0.0134 |
| RRIRERPPRLPRPRPRPMVIPRP | -0.0351 |
| RRIRIRPPRLPRPRPRPHCIPRP | -2.92 |
| RRIRDRPPRLPRPRPRPRNIPRP | -0.0463 |
| RRIRMRPPRLPRPRPRPTVFPRP | 0.498 |
| RRIRCRPPRLPRPRPRPDPGPRP | 0.112 |
| RRIRRRPPRLPRPRPRPVLRPRP | 1.11 |
| RRIRERPPRLPRPRPRPHKNPRP | -0.206 |

| Sequence | shrunken log2 fold change |
| --- | --- |
| RRIRSRPPRLPRPRPRPQSFPRP | -0.0939 |
| RRIRSRPPRLPRPRPRPSKMPRP | -0.0555 |
| RRIRARPPRLPRPRPRPYRCPRP | -0.174 |
| RRIRLRPPRLPRPRPRPMDMPRP | -0.384 |
| RRIRNRPPRLPRPRPRPFYHPRP | -0.0822 |
| RRIRWRPPRLPRPRPRPLYIPRP | -0.872 |
| RRIRPRPPRLPRPRPRPHLLPRP | -0.0988 |
| RRIRLRPPRLPRPRPRPIYSPRP | 0.0408 |
| RRIRRRPPRLPRPRPRPNHAPRP | 0.345 |
| RRIRWRPPRLPRPRPRPQKCPRP | -0.382 |
| RRIRPRPPRLPRPRPRPIWIPRP | -0.308 |
| RRIRQRPPRLPRPRPRPTCNPRP | -0.348 |
| RRIRIRPPRLPRPRPRPKFLPRP | -0.537 |
| RRIRTRPPRLPRPRPRPGVMPRP | 0.0539 |
| RRIRLRPPRLPRPRPRPNYHPRP | -0.536 |
| RRIRERPPRLPRPRPRPMKMPRP | 0.0259 |
| RRIRHRPPRLPRPRPRPDELPRP | -0.000777 |
| RRIRWRPPRLPRPRPRPGVDPRP | 0.371 |
| RRIRIRPPRLPRPRPRPYYPPRP | -1.36 |
| RRIRMRPPRLPRPRPRPYCGPRP | -0.0255 |
| RRIRCRPPRLPRPRPRPDRPPRP | 0.19 |
| RRIRRRPPRLPRPRPRPERPPRP | 0.991 |
| RRIRIRPPRLPRPRPRPNIKPRP | -1.05 |
| RRIRTRPPRLPRPRPRPKDGPRP | -0.0362 |
| RRIRPRPPRLPRPRPRPFEAPRP | -0.105 |

| Sequence | shrunken log2 fold change |
| --- | --- |
| RRIRVRPPRLPRPRPRPCYLPRP | -0.56 |
| RRIRGRPPRLPRPRPRPEYVPRP | 0.244 |
| RRIRCRPPRLPRPRPRPPGEPRP | 0.609 |
| RRIRVRPPRLPRPRPRPILEPRP | 0.13 |
| RRIRPRPPRLPRPRPRPHMMPRP | -0.19 |
| RRIRFRPPRLPRPRPRPMVDPRP | -0.304 |
| RRIRTRPPRLPRPRPRPTSEPRP | -0.126 |
| RRIRQRPPRLPRPRPRPCKQPRP | 0.0108 |
| RRIRMRPPRLPRPRPRPSGDPRP | 0.839 |
| RRIRCRPPRLPRPRPRPQAVPRP | -0.154 |
| RRIRDRPPRLPRPRPRPLDAPRP | 0.0602 |
| RRIRARPPRLPRPRPRPLVIPRP | -0.152 |
| RRIRLRPPRLPRPRPRPGFLPRP | 0.0856 |
| RRIRYRPPRLPRPRPRPNCAPRP | -0.214 |
| RRIRDRPPRLPRPRPRPSAKPRP | 0.23 |
| RRIRFRPPRLPRPRPRPPCMPRP | -0.125 |
| RRIRVRPPRLPRPRPRPDIQPRP | 1.23 |
| RRIRWRPPRLPRPRPRPADFPRP | -0.0275 |
| RRIRARPPRLPRPRPRPKVCPRP | -0.132 |
| RRIRMRPPRLPRPRPRPMDRPRP | -0.0181 |
| RRIRRRPPRLPRPRPRPYHPPRP | -0.34 |
| RRIRLRPPRLPRPRPRPKPIPRP | 0.111 |
| RRIRDRPPRLPRPRPRPMHTPRP | 0.0757 |
| RRIRIRPPRLPRPRPRPQDFPRP | -0.1 |
| RRIRQRPPRLPRPRPRPWASPRP | -0.017 |

| Sequence | shrunken log2 fold change |
| --- | --- |
| RRIRCRPPRLPRPRPRPKYDPRP | -0.605 |
| RRIRCRPPRLPRPRPRPKLHPRP | -0.113 |
| RRIRQRPPRLPRPRPRPEASPRP | -0.0802 |
| RRIRNRPPRLPRPRPRPLHGPRP | -0.0305 |
| RRIRTRPPRLPRPRPRPYAKPRP | -0.0117 |
| RRIRTRPPRLPRPRPRPIATPRP | 0.227 |
| RRIRKRPPRLPRPRPRPAMGPRP | 0.14 |
| RRIRLRPPRLPRPRPRPEPPPRP | 0.53 |
| RRIRSRPPRLPRPRPRPAIDPRP | -0.0382 |
| RRIRIRPPRLPRPRPRPRFNPRP | -0.173 |
| RRIRCRPPRLPRPRPRPLINPRP | -0.621 |
| RRIRFRPPRLPRPRPRPHDRPRP | 0.0063 |
| RRIRKRPPRLPRPRPRPLAGPRP | 0.286 |
| RRIRNRPPRLPRPRPRPPWEPRP | -0.0446 |
| RRIRCRPPRLPRPRPRPVLAPRP | -0.0206 |
| RRIRYRPPRLPRPRPRPCYVPRP | -0.0553 |
| RRIRTRPPRLPRPRPRPAAEPRP | 0.351 |
| RRIRVRPPRLPRPRPRPIYPPRP | -0.413 |
| RRIRWRPPRLPRPRPRPPRYPRP | 0.374 |
| RRIRIRPPRLPRPRPRPCYTPRP | -0.128 |
| RRIRSRPPRLPRPRPRPYQAPRP | -0.0507 |
| RRIRIRPPRLPRPRPRPSWGPRP | -0.0874 |
| RRIRVRPPRLPRPRPRPISRPRP | 0.107 |
| RRIRPRPPRLPRPRPRPTEMPRP | 0.218 |
| RRIRYRPPRLPRPRPRPNHEPRP | -0.657 |
